The source of these data is patent publication US20210373004A1 (BIOASTER, published 2021).

By Kd is commonly meant the constant that tells how readily two partners part at equilibrium. Higher therefore signals lower affinity.

Experiment [1] addresses T1, Flag-EmGFP-ColE7-6His (Escherichia coli).
T1 construct: also called Colicin E7
Briefly: EIA 8 plex n° 1: colicin coated at 100 nM, Im-RLuc8 alone at 100 nM, luciferase signal.

Experiment [2] concerns the target T2, Flag-mCherry-ColE9-6His (Escherichia coli).
T2 construct: also called Colicin E9
Described as above.

Experiment [3] concerns the target T3, Flag-mCherry-ColErw-Cys-6His (Pectobacterium carotovorum). Described as above.
The target in experiment [4] is T4, Flag-mCherry-ColLeaf-Cys-6His (Pseudomonas sp Leaf83). The experiment is described as follows: EIA 8 plex n° 2: colicin coated at 100 nM, Im-RLuc8 alone at 100 nM, luciferase signal.
Experiment [5] has as its target T5, Flag-mCherry-ColE8-6His (Escherichia coli).
T5 construct: also called Colicin E8
The experiment is described as follows: EIA 4 plex: colicin coated at 100 nM, Im-RLuc8 alone at 100 nM, luciferase signal (FIG. 1, light grey bars).

The target in experiment [6] is T5, Flag-mCherry-ColE8-6His. Briefly: EIA 8 plex n° 1: colicin coated at 100 nM, Im-RLuc8 alone at 100 nM, luciferase signal (FIG. 3, light grey bars).
Experiment [7] concerns the target T5, Flag-mCherry-ColE8-6His. The experiment is described as follows: EIA 8 plex n° 2: colicin coated at 100 nM, Im-RLuc8 alone at 100 nM, luciferase signal (FIG. 4, light grey bars).
Experiment [8] addresses T6, Flag-EmGFP-ColE2-6His (Escherichia coli).
T6 construct: Coated on the plate or sprayed on the membrane; also called Colicin E2
Briefly: kinetics, literature value (Li W. et al., 2004) printed above the bar pair; unit from the legend paragraph 10.

Experiment [9] addresses T1, Flag-EmGFP-ColE7-6His. Described as above.
Experiment [10] concerns the target T2, Flag-mCherry-ColE9-6His. The description is as above.
In experiment [11] the target is Flag-mCherry-ColSyr-Cys-6His (Pseudomonas syringae B728A). Briefly: EIA 8 plex n° 1: colicin coated at 100 nM, Im-RLuc8 at 100 nM, luminescence; light bar alone, dark bar with the 7 other unfused Im proteins.
The target of experiment [12] is Flag-mCherry-ColKhan-Cys-6His (Photorhabdus khanii). The experiment is described as above.
Experiment [13] addresses T7, Flag-mCherry-ColAP41-Cys-6His (Pseudomonas aeruginosa AP41). Briefly: EIA 8 plex n° 2: colicin coated at 100 nM, Im-RLuc8 at 100 nM, luminescence; light bar alone, dark bar with the 7 other unfused Im proteins.
The target in experiment [14] is T1, Flag-EmGFP-ColE7-6His. The experiment is described as follows: EIA 4 plex: colicin coated at 100 nM, Im-RLuc8 alone at 100 nM, luciferase signal (FIG. 1, light grey bars).
The target in experiment [15] is T1, Flag-EmGFP-ColE7-6His. The experiment is described as follows: EIA 8 plex n° 1: colicin coated at 100 nM, Im-RLuc8 alone at 100 nM, luciferase signal (FIG. 3, light grey bars).
Experiment [16] addresses T5, Flag-mCherry-ColE8-6His. The experiment is described as follows: EIA: colicin coated at 100 nM, Im-RLuc8 at 100 nM, luminescence; light bar alone, dark bar with the 3 other unfused Im proteins.
Experiment [17] addresses T7, Flag-mCherry-ColAP41-Cys-6His. The experiment is described as follows: EIA 8 plex n° 1: colicin coated at 100 nM, Im-RLuc8 at 100 nM, luminescence; light bar alone, dark bar with the 7 other unfused Im proteins.
Experiment [18] concerns the target T3, Flag-mCherry-ColErw-Cys-6His. Described as above.
Experiment [19] concerns the target T6, Flag-EmGFP-ColE2-6His. Briefly: EIA 4 plex: colicin coated at 100 nM, Im-RLuc8 alone at 100 nM, luciferase signal (FIG. 1, light grey bars).
Experiment [20] concerns the target T6, Flag-EmGFP-ColE2-6His. Briefly: EIA 8 plex n° 1: colicin coated at 100 nM, Im-RLuc8 alone at 100 nM, luciferase signal (FIG. 3, light grey bars).
Experiment [21] deals with T6, Flag-EmGFP-ColE2-6His. Briefly: EIA 8 plex n° 2: colicin coated at 100 nM, Im-RLuc8 alone at 100 nM, luciferase signal (FIG. 4, light grey bars).
The target in experiment [22] is T5, Flag-mCherry-ColE8-6His. The experiment is described as follows: kinetics, literature value (Li W. et al., 2004) printed above the bar pair; unit from the legend paragraph 10.
In experiment [23] the target is T3, Flag-mCherry-ColErw-Cys-6His. The experiment is described as follows: EIA 8 plex n° 2: colicin coated at 100 nM, Im-RLuc8 at 100 nM, luminescence; light bar alone, dark bar with the 7 other unfused Im proteins.
The target of experiment [24] is T4, Flag-mCherry-ColLeaf-Cys-6His. The description is as above.

B1: Myc-RLuc8-Im8-6His (other)
chain: MGGEQKLISEEDLGGSASKVYDPEQRKRMITGPQWWARCKQMNVLDSFINYYDSEKHAENAVIFLHGNATSSYLWRHVVPHIEPVARCIIPDLIGMGKSGKSGNGSYRLLDHYKYLTAWFELLNLPKKIIFVGHDWGAALAFHYAYEHQDRIKAIVHMESVVDVIESWDEWPDIEEDIALIKSEEGEKMVLENNFFVETVLPSKIMRKLEPEEFAAYLEPFKEKGEVRRPTLSWPREIPLVKGGKPDVVQIVRNYNAYLRASDDLPKLFIESDPGFFSNAIVEGAKKFPNTEFVKVKGLHFLQEDAPDEMGKYIKSFVERVLKNEQKLELKNSISDYTETEFKKIIEDIINCEGDEKKQDDNLEHFISVTEHPSGSDLIYYPEGNNDGSPEAVIKEIKEWRAANGKSGFKQGLEGGGSHHHHHH
notes: Immunity protein fused to the luciferase RLuc8 as reporter; added in solution; also called Im8-RLuc8; Im8-Rluc8
On to B1, for which the RLU with Flag-EmGFP-ColE7-6His [1] is over 100000 RLU; with Flag-mCherry-ColE9-6His [2], over 100000 RLU; in [3], over 100000 RLU; in experiment [4], over 100000 RLU; with Flag-mCherry-ColE8-6His [5], over 400000 RLU; with Flag-mCherry-ColE8-6His [6], over 2e+06 RLU. Also, in the experiment with Flag-mCherry-ColE8-6His [7], the RLU is over 2.4e+06 RLU. For the same molecule, the dissociation constant (Kd) is 38 nM with Flag-EmGFP-ColE2-6His [8], 0.37 nM with Flag-EmGFP-ColE7-6His [9] and 500 nM with Flag-mCherry-ColE9-6His [10]. Further, the binding result in experiment [11], in [12] and in experiment [13] was “no binding (tested: 100 nM)” throughout.

B2: Myc-RLuc8-Im7-6His (other)
chain: MGGEQKLISEEDLGGSASKVYDPEQRKRMITGPQWWARCKQMNVLDSFINYYDSEKHAENAVIFLHGNATSSYLWRHVVPHIEPVARCIIPDLIGMGKSGKSGNGSYRLLDHYKYLTAWFELLNLPKKIIFVGHDWGAALAFHYAYEHQDRIKAIVHMESVVDVIESWDEWPDIEEDIALIKSEEGEKMVLENNFFVETVLPSKIMRKLEPEEFAAYLEPFKEKGEVRRPTLSWPREIPLVKGGKPDVVQIVRNYNAYLRASDDLPKLFIESDPGFFSNAIVEGAKKFPNTEFVKVKGLHFLQEDAPDEMGKYIKSFVERVLKNEQKLELKNSISDYTEAEFVQLLKEIEKENVAATDDVLDVLLEHFVKITEHPDGTDLIYYPSDNRDDSPEGIVKEIKEWRAANGKPGFKQGLEGGGSHHHHHH
notes: Immunity protein fused to the luciferase RLuc8 as reporter; added in solution; also called Im7-RLuc8; Im7-Rluc8
For B2, the RLU was over 400000 RLU with Flag-EmGFP-ColE7-6His [14] and over 2e+06 RLU in the experiment with Flag-EmGFP-ColE7-6His [15]. For the same molecule, the dissociation constant (Kd) was 14 nM with Flag-EmGFP-ColE2-6His [8] and about 100000 nM with Flag-mCherry-ColE9-6His [10]. Besides, the binding result with Flag-mCherry-ColE8-6His [16] is given as “binds”; in experiment [17], “no binding (tested: 100 nM)”; in experiment [11], “no binding (tested: 100 nM)”; in [18], “no binding (tested: 100 nM)”; in experiment [12] it was “no binding (tested: 100 nM)”.

B3: Myc-RLuc8-Im2-6His (other)
chain: MGGEQKLISEEDLGGSASKVYDPEQRKRMITGPQWWARCKQMNVLDSFINYYDSEKHAENAVIFLHGNATSSYLWRHVVPHIEPVARCIIPDLIGMGKSGKSGNGSYRLLDHYKYLTAWFELLNLPKKIIFVGHDWGAALAFHYAYEHQDRIKAIVHMESVVDVIESWDEWPDIEEDIALIKSEEGEKMVLENNFFVETVLPSKIMRKLEPEEFAAYLEPFKEKGEVRRPTLSWPREIPLVKGGKPDVVQIVRNYNAYLRASDDLPKLFIESDPGFFSNAIVEGAKKFPNTEFVKVKGLHFLQEDAPDEMGKYIKSFVERVLKNEQKLELKHSISDYTEAEFLEFVKKICRAEGATEEDDNKLVREFERLTEHPDGSDLIYYPRDDREDSPEGIVKEIKEWRAANGKSGFKQGLEGGGSHHHHHH
notes: Immunity protein fused to the luciferase RLuc8 as reporter; added in solution; also called Im2-RLuc8; Im2-Rluc8
In the case of B3, the RLU with Flag-EmGFP-ColE2-6His [19] is over 400000 RLU; with Flag-EmGFP-ColE2-6His [20], over 2e+06 RLU; with Flag-EmGFP-ColE2-6His [21] it was over 2.4e+06 RLU. Moreover, the equilibrium dissociation constant (Kd) in the experiment with Flag-EmGFP-ColE2-6His [8] amounted to 3.9e-06 nM; in the experiment with Flag-EmGFP-ColE7-6His [9], 0.36 nM; with Flag-mCherry-ColE8-6His [22], 18 nM. The binding result in [17], in [11], in [12], in [23] and in experiment [24] was “no binding (tested: 100 nM)” in each case.
